{"source": "the nanobody polyreactivity screen of Harvey et al. (2022)", "data": [{"test": "yeast display, Sf9 membrane polyspecificity reagent, FACS + sequencing; frameworks hold sequencing errors", "outline": "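A synthetic nanobody library was expressed on Saccharomyces cerevisiae BJ5465 by galactose induction for 36–48 hours. The library was stained for 1 hour at 4 °C with 10% biotinylated, detergent-solubilized Sf9 membrane reagent and enriched with streptavidin microbeads before FACS. Low and high (top ~1%) gates were set on anti-HA fluorescence for expression and streptavidin fluorescence for reagent binding, and each polyreactivity label reflects the gate of origin.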", "values": [{"sequence": "QVQLVESGGGLVQAGGSLRLSCAASGSTFFYNAMGWSRQAPGKERELVAAIRFSGGSTRYADSVKGRFTISRDNAKNTVYLQMNSLKPEDTAVYYCNARGFRESIWYQYDYWGQGTQVTVSS", "polyreactivity (PSR sort gate)": "high polyreactivity"}, {"sequence": "QVQLVESGGGLVQAGGSLRLSCAASGSTFFYNAMGWYRQAPGKERESTNYADSVKGRFTISRDNAKNTVYLQMNSLKPEDTAVYYSAKDRSYYRKFSSYRLHDYWGHGTQVTVSS", "polyreactivity (PSR sort gate)": "low polyreactivity"}, {"sequence": "QVQLVESGGGLVQAGGSLRLSCAASGSTFFYYTIGWYRQAPGKERELVASITNRGGNTYYADSVKGRFTISRDNAKNTVYLQTNSLKPEDTAVYYCARRYYGYSGRYDYWGQGTQVTVSS", "polyreactivity (PSR sort gate)": "high polyreactivity"}, {"sequence": "QVQLVESGGGLVQAGGSLRLSCAASGSTFFYYTMGWYRQAPGKERELVASITNRGGNTYYADSVKGRFTISRDNAKTTVYLQMNSLKPEDTAVYYCARRYYWYSGRYDYWGQGTQVTVSS", "polyreactivity (PSR sort gate)": "high polyreactivity"}, {"sequence": "QVQLVESGGGLVQAGGSLRLSCAASGSTFGAYAMGWYRQAPGKERELVAAISRSGASTYYADSVKGRFTISRDNAKNTVYLQMNSLKPVDTAVYYCAAKIVSRYRVIYDYWGQGTQVTVSS", "polyreactivity (PSR sort gate)": "high polyreactivity"}, {"sequence": "QVQLVESGGGLVQAGGSLRLSCAASGSTFGDYAMGWSRQAPGKERELVAAISRGGSTYYADSVKGRFTISRDNEKNTVYLQMNSLKPEDTAVYYCNKDEGYSASPDGSTFDYWGQGTQVTVSS", "polyreactivity (PSR sort gate)": "low polyreactivity"}, {"sequence": "QVQLVESGGGLVQAGGSLRLSCAASGSTFGDYAMGWYRQAPGKERELVAAISFSDGSTYYADSVKGRFTISRDNAKNTVYLQMNSLKPEDTAVYYCAKVDYWVYRWYTYDYWGQGTQVTVSS", "polyreactivity (PSR sort gate)": "low polyreactivity"}, {"sequence": "QVQLVESGGGLVQAGGSLRLSCAASGSTFGDYTMGLYRQAPGKERELVAAITLTGGSTYYADSVKGRFTISRDNAKNTVYLQMNSLKPEDTAVYYCAKEWIFDFNYWGQGTQVTVSS", "polyreactivity (PSR sort gate)": "low polyreactivity"}, {"sequence": "QVQLVESGGGLVQAGGSLRLSCAASGSTFGENAMGWYRQAPGKERELVAGINSTGGSTYYADSVKGRFTISRDHAKNNVYLQMNSLNPEDTAVYYCAAGDWYSGNTSHFYYWGQGTQVTVSS", "polyreactivity (PSR sort gate)": "low polyreactivity"}, {"sequence": "QVQLVESGGGLVQAGGSLRLSCAASGSTFGEYAMGWYRQAPGKERELVASITFSAGSTDYADSVKGRFTISRDNAKNTVYLQMNSLKPEDTAVYYCAADGWWPWEYDYWGQGTQVTVSS", "polyreactivity (PSR sort gate)": "low polyreactivity"}, {"sequence": "QVQLVESGGGLVQAGGSLRLSCAASGSTFGFNAKGWYRKAPGKERELFAAIDKSGDRHYYADSVKGRFTISRDNAKNSVYLQMNSLKTVDTAVYYCAGDIPFYRYEYWGQGTQVTVSS", "polyreactivity (PSR sort gate)": "high polyreactivity"}, {"sequence": "QVQLVESGGGLVQAGGSLRLSCAASGSTFGFNAMGWYRQAPGKERELVAAIDGSAGSTYYADSVKGRFTISRDNAKNTVYLQMNSLKPEDTAVYYCAADIYWFIEYEYWGQGTQVTVSS", "polyreactivity (PSR sort gate)": "low polyreactivity"}, {"sequence": "QVQLVESGGGLVQAGGSLRLSCAASGSTFGFYAMGWYRQAPGKERELVAAISVSGGSTYYADSVKGRFTISRDNAKNTVYLQMNSLNPEDTGVYYCNKVWRPRYYWGLGTQVTVSS", "polyreactivity (PSR sort gate)": "high polyreactivity"}, {"sequence": "QVQLVESGGGLVQAGGSLRLSCAASGSTFGFYTMGWYRPAPGKERELVAAISWSTGRTYYADSVKGRFTISRDNAKNTVYLQMNSLKPEDTAVYYCAARAVDKYRFGGRYDYWGQGTQVTVSS", "polyreactivity (PSR sort gate)": "low polyreactivity"}, {"sequence": "QVQLVESGGGLVQAGGSLRLSCAASGSTFGGNAMGWYRKAPGKERELVAVISKRGGSTYYADSVKGRFTISRDNAKNTVYLQMNSLKPEDTAVYYCAATYSRYWSPTYDYWGQGTQVTVSS", "polyreactivity (PSR sort gate)": "high polyreactivity"}, {"sequence": "QVQLVESGGGLVQAGGSLRLSCAASGSTFGGNAMGWYRPAPGKERELVAGITTGGTTNYADSVKGRFTISRDNAKNTVYLQMISLIPEDTAVYYCAAGPSSSLTLYDYWGQGTQVTVSS", "polyreactivity (PSR sort gate)": "low polyreactivity"}, {"sequence": "QVQLVESGGGLVQAGGSLRLSCAASGSTFGGNAMGWYRQAPGKERELVAAISSGDSTTYADSVKGRFTISRDNAKNTVYLQMNSLKPEDTAVYYSNRSPKSGQVTYLYSVNAHYDYWGQGTQVTVSS", "polyreactivity (PSR sort gate)": "low polyreactivity"}, {"sequence": "QVQLVESGGGLVQAGGSLRLSCAASGSTFGGYAMGWYRQAPGKEREFVAAISWRGGGTYYADSVKGRFTISRDNAMNTVYLQMNSLKPEDTAVYYCAAERRYTYQYNYWGQGTQVTVSS", "polyreactivity (PSR sort gate)": "high polyreactivity"}, {"sequence": "QVQLVESGGGLVQAGGSLRLSCAASGSTFGGYAMGWYRQAPGKERELVAAISQSGTRSYYADSVKGRFTISRDNAKNTVYLQMNSLKPEDTAVYYCAAEKRFRKYDYWGQGTQVTVSS", "polyreactivity (PSR sort gate)": "high polyreactivity"}, {"sequence": "QVQLVESGGGLVQAGGSLRLSCAASGSTFGGYAMGWYRQAPGKERELVAGISSGTSTYYADSVKGRFTISRDNAKNTVYLQMNSLKPEDTAVYYCAKYSYYRKLGYWGQGTQVTVSS", "polyreactivity (PSR sort gate)": "high polyreactivity"}, {"sequence": "QVQLVESGGGLVQAGGSLRLSCAASGSTFGGYAMGWYRQAPGKERELVATINYSDGSTYYADSVKGRFTISRDNAKNTVYLQMNSLKPEDTAVYYCAKRFGSGWAWFGYWGQGTQVTVSS", "polyreactivity (PSR sort gate)": "low polyreactivity"}, {"sequence": "QVQLVESGGGLVQAGGSLRLSCAASGSTFGGYAMGWYRQAPGKERELVATITGGGSTNYADSVKGRFTISRDNAKNTVYLQMNSLKPEDTAVYYCAATEKYQYKVFYDPVGAYDYWGQGTQVTVSS", "polyreactivity (PSR sort gate)": "low polyreactivity"}, {"sequence": "QVQLVESGGGLVQAGGSLRLSCAASGSTFGGYTMGWYRQAPGKERELVAAITSGGGRTYYADSVKGRFTISRDNSKNTVYLQMNSLKPEDTAVYYCATGYKGLYWKYDYWGQGTLVTVSS", "polyreactivity (PSR sort gate)": "high polyreactivity"}, {"sequence": "QVQLVESGGGLVQAGGSLRLSCAASGSTFGHNAMGWYRQATGKERELVAAISKSGGRTYYADSVKGRFTISRDNAKNTVYLQMNSLKPEDTAVYYCAKDGVVGSGTLNIYDYWGQGTQVTVSS", "polyreactivity (PSR sort gate)": "low polyreactivity"}, {"sequence": "QVQLVESGGGLVQAGGSLRLSCAASGSTFGHYAMGCYRQAPGKERDLVAAISWSGASTYYADSVKGRFTISRDNAKNTVYLQMNSLKPEDTAVYYCAAESYRQTYYVGDGYEDDYWGQGTQVTVSS", "polyreactivity (PSR sort gate)": "low polyreactivity"}, {"sequence": "QVQLVESGGGLVQAGGSLRLSCAASGSTFGHYAMGRYRQAPGKESELVSAISTSGGRTYYADSVKGRFTISRDNAKNTVYLQMNSLKPEDTAVYYCATRRYGVDKFDYWGQGTQVTVSS", "polyreactivity (PSR sort gate)": "high polyreactivity"}, {"sequence": "QVQLVESGGGLVQAGGSLRLSCAASGSTFGKYAMGWYRQAPGKERELVAAITESDSSTYYADSVKGRFTLSRDNAKNTVYLQMNSLKPEDTAVDYCAADSLYSYPWSTYFYGGDYWGQGTQVTVSS", "polyreactivity (PSR sort gate)": "low polyreactivity"}, {"sequence": "QVQLVESGGGLVQAGGSLRLSCAASGSTFGLNVMGWYRQAPGKEREFVAGISRSGGRTYYADSVKGRFTISRDNAKNTVYLQMNSLKPADTAVYYCAADYWTGITPDAIGDYWGQGTQVTVSS", "polyreactivity (PSR sort gate)": "low polyreactivity"}, {"sequence": "QVQLVESGGGLVQAGGSLRLSCAASGSTFGLYAMGWYRQAPGKERELVAAITIRGGSTYYADSVKGRFTISRDNAKNTVYLQMNSLKPEDTAVYYCAADYWYGGFEYWGQGTQVTVSS", "polyreactivity (PSR sort gate)": "low polyreactivity"}, {"sequence": "QVQLVESGGGLVQAGGSLRLSCAASGSTFGNYAMGWYRQAPGKEMELVAAISTSGDSTYYADSVKGRFTISRDNAKYTVYLQMNSLKPEDSAVYYCKARGIATGNRHEYWGQGTQVTVSS", "polyreactivity (PSR sort gate)": "low polyreactivity"}, {"sequence": "QVQLVESGGGLVQAGGSLRLSCAASGSTFGNYAMGWYRQAPGKERELVAAIRSRGGRTYYADSVKGRFTISRDYAKNTVYLQMNSLKPVDTAVYYCARDSRTGYYYWGQGTQVTVSS", "polyreactivity (PSR sort gate)": "high polyreactivity"}, {"sequence": "QVQLVESGGGLVQAGGSLRLSCAASGSTFGNYAMGWYRQAPGKERELVAAISVGDGSTYYADSVKGRFTISRDNAKNTVYLQMNSLKPEDTAFYYCAADFVYPSWHYDYWGQGTQVTVSS", "polyreactivity (PSR sort gate)": "high polyreactivity"}, {"sequence": "QVQLVESGGGLVQAGGSLRLSCAASGSTFGNYAMGWYRQAPGKERELVATISRSGGSTYYADSVQGRFTISRDIAKNTVNLQMNSLKPEDTAVYYCNRRYYTRKPDYNSWGQGTQVTVSS", "polyreactivity (PSR sort gate)": "high polyreactivity"}, {"sequence": "QVQLVESGGGLVQAGGSLRLSCAASGSTFGPNAMGWYRQAPGKERELVAAIRSNGGRTYYADSVKGRFTISRDNAKITVYLQMNSLKPEDSAVYYCADPHYPYDTPYGYWGQGTQVTVSS", "polyreactivity (PSR sort gate)": "low polyreactivity"}, {"sequence": "QVQLVESGGGLVQAGGSLRLSCAASGSTFGPYAMGWYRQAPGKERELVAAISSRGARTYYADSVKGRFTISRDNAKNTVYLQMNSLKPEDTAVYYCANTYHGTAYDYWGQGTQVTVSS", "polyreactivity (PSR sort gate)": "high polyreactivity"}, {"sequence": "QVQLVESGGGLVQAGGSLRLSCAASGSTFGPYAMGWYRQAPGKERELVADISGGSTNYADSVKGRFTISRDNAKNTVYLQMNSLKPEDTAVYYGAADSYPAYLGFVGFDYWGQGTQVTVSS", "polyreactivity (PSR sort gate)": "low polyreactivity"}, {"sequence": "QVQLVESGGGLVQAGGSLRLSCAASGSTFGPYAMGWYRQAPGKERELVAVITTSGSTNYADSVKGRFTISRDNAKNTVYLQMNSLKPEDTAVSYCAARYRYYGTNRYYYWGQGTQVTVSS", "polyreactivity (PSR sort gate)": "high polyreactivity"}, {"sequence": "QVQLVESGGGLVQAGGSLRLSCAASGSTFGPYTMGWYRQAPGKERELVATISSGGSTYYADSVKGRFTISRDNAKNTVYLQMNSLKPEDTAVYYCARDSYWEMDYWGQGTQVTVSS", "polyreactivity (PSR sort gate)": "low polyreactivity"}, {"sequence": "QVQLVESGGGLVQAGGSLRLSCAASGSTFGQNAMGWYRQAPGKERELVAAITRRGVSTYYADSVKGRFTISRDNAKNTVYLQMNSLKPEDTAVYYCAKRYHPNSPYDYWGQGTQVTVSS", "polyreactivity (PSR sort gate)": "low polyreactivity"}, {"sequence": "QVQLVESGGGLVQAGGSLRLSCAASGSTFGQYVMGWYRQAPGKERELVAAISSADSTNYADSVKGRFTISRDNAKNTVYLQMNSLKPEDTAVYYCAAARRPTYWPVYPYFGYEYWGQGTQVTVSS", "polyreactivity (PSR sort gate)": "low polyreactivity"}, {"sequence": "QVQLVESGGGLVQAGGSLRLSCAASGSTFGRNALGWYRQAPGKERELVASISWGGGSTYYADSVKGRFTISRDNSKNTVYLQMNSLKTEDTAVYYCNARRFLWSQLSGSFSYDYWGQGTQVTVSS", "polyreactivity (PSR sort gate)": "high polyreactivity"}]}]}
